Where a chain is given by its changes, count along the chain named.

Experiment [1] has as its target T1, recombinant human CD19 (labeled CD19) (human, UniProt P15391 20-291, limits assumed, fluorescent label, kind and site not stated).
T1 construct: The antigen titrated on yeast is only called 'labeled CD19'; also called fluorescently tagged antigen
T1 sequence (looked up): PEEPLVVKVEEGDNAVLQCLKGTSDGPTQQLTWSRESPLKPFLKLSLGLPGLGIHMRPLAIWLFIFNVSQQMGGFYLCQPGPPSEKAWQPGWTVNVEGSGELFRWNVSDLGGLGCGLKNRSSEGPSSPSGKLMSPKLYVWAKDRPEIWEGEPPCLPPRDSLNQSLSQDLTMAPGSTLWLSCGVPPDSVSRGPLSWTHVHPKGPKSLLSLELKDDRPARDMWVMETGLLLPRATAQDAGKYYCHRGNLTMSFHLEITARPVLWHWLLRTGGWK
Kind of experiment: flow cytometry of yeast-displayed scFv titrated with decreasing amounts of labeled CD19. How it is done: To increase the affinity of m19217, a yeast-display m19217 mutant scFv library was created by using error-prone PCR to create random point mutations in scFv gene sequences. After electroporation, the resulting mutant library was then grown overnight at 30° C. for 16 hours in SDCAA medium and then switched into SGCAA medium at 30° C. for another 16 hours. The mutant library was then sorted through MACS (immunomagentic column, Miltenyi Biotec) with CD19-Fc as the capture antigen to downsize the library and to increase the population of mutants that could bind to CD19-Fc. The strongest binders were then selected by double staining the pools with Anti-c-Myc-Alexa 488 and CD19-Fc/Anti-Hu-Fc and selecting for the binders that had the highest binding affinities as well as c-Myc expression levels. […] Binidng affinities were estimated by flow cytometry of yeast pools using decreasing amounts of labeled CD19.
A general note: Flow cytometry measures light scatter and fluorescence of single cells or particles in a stream.

Experiment [2] concerns the target T2, CD19-Fc peptide (R&D, Minneapolis, Minn.) (UniProt P15391 20-291).
T2 construct: Bought reagent; also called recombinant CD19-Fc peptide; not shown: Fc part; bought reagent, detected with anti-human Fc F(ab')2-AF647
T2 sequence (looked up): T1 sequence (looked up)
Kind of experiment: flow cytometry of CAR-transduced primary human T cells stained with CD19-Fc then anti Fc-AF647; untransduced T cells set as 0%. How it is done: FIG. 3 depicts anti-CD19 CAR surface expression in primary human T cells. CAR T cells redirected to CD19 tumor antigen via the use of ScFv domains (as listed in each panel) were generated by lentiviral transduction with CAR expression constructs. CART detection was performed by flow cytometry. T cells were washed twice in cold PBS-EDTA buffer and stained with CD19-Fc peptide followed by anti Fc-AF647 reagent. At least 20,000 cells were acquired for each analysis. Cells were gated based on forward scatter and side scatter, singlet discrimination, and 7AAD negativity so that only viable cells were analyzed. Data were acquired on MACSQuant 10 flow cytometer in the APC channel. UTD, un-transduced negative control cells. The marker in each panel identifies the CAR-expressing population, and are listed as percent of total transduced T cells analyzed.
For cell staining, half a million CAR T transduced cells were harvested from culture, washed two times in cold AutoMACS buffer supplemented with 0.5% bovine serum albumin (Miltenyi Biotec), and CAR surface expression detected by staining with CD19-Fc peptide (R&D, Minneapolis, Minn.) followed by anti Fc-AF647 conjugate (Jackson ImmunoResearch, West Grove, Pa.). Non-transduced cells were used as negative controls. Dead cells in all studies were excluded by 7AAD staining (BD Biosciences, San Jose, Calif.). Cells were washed twice and resuspended in 200 ul Staining Buffer before quantitative analysis by flow cytometry. Flow cytometric analysis was performed on a MACSQuant®10 Analyzer (Miltenyi Biotec), and data plots were generated using FlowJo software (Ashland, Oreg.).
T cells were activated on culture Day 0 with TransAct T cell reagent (active engagement of CD3 and CD28 antigens, Miltenyi Biotec, Inc.) in the presence of IL-2 as described in Materials and Methods. On culture Day 8-10, expression of anti-CD19 CARs on T cell surface was detected by CD19-Fc peptide followed by anti Fc-AF647 and analyzed by flow cytometry.

B1: human anti-CD19 ScFv binder M19217 (scFv)
scFv: EVQLVQSGAEVKKPGASVKVSCKASGYTFTSYYMHWVRQAPGQGLEWMGIINPSGGSTSYAQKFQGRVTMTRDTSTSTVYMELSSLRSEDTAVYYCARSDRGITATDAFDIWGQGTMVTVSSGGGGSGGGGSGGGGSQSVLTQPPSVSVAPGQTAKITCGGSDIGNKNVHWYQQKPGQAPVLVVYDDYDRPSGIPERFSGSNSGDAATLTISTVEVGDEADYFCQVWDSSGDPYWVFGGGTQLTVLG
notes: also called ScFv1; founder clone
One may read the EC50 as the concentration that produces a half-maximal response. Take B1: the EC50 in experiment [1] is 0.5 µg/mL.

B2: human anti-CD19 ScFv binder M19217-1 (scFv)
scFv: B1 scFv with I50L, Q153R, T154M, S229G, V236M
notes: also called ScFv2
As for B2, the concentration giving a half-maximal response (EC50) in experiment [1] is below 0.01 µg/mL.

B3: human anti-CD19 ScFv binder M19217-38 (scFv)
scFv: B1 scFv with K13R, Q43R, I50L, K63E, T74M, T104S, T154M, D189N, S229G, V245D
notes: also called ScFv7
With B3, the EC50 in experiment [1] is below 0.01 µg/mL.

B4: human anti-CD19 ScFv binder M19217-40 (scFv)
scFv: B1 scFv with K13R, E46V, I50L, I157T, F223V, S229G
notes: also called ScFv8
As for B4, in experiment [1], the EC50 is below 0.01 µg/mL.

B5: human anti-CD19 ScFv binder M19217-7 (scFv)
scFv: B1 scFv with K12N, I50M, A105S, V149L, D189N, A206S, S229G
notes: also called ScFv4
Take B5: the EC50 in experiment [1] was below 0.01 µg/mL.

B6: human anti-CD19 ScFv binder M19217-2 (scFv)
scFv: B1 scFv with L45F, I50L, G56S, S85N, S148P, T158I, S229G
notes: also called ScFv3
As for B6, the EC50 in experiment [1] is below 0.01 µg/mL.

B7: human anti-CD19 ScFv binder M19217-23 (scFv)
scFv: B1 scFv with S31G, M48I, I50L, A61E, T69A, N166D, S229G, S230I
notes: also called ScFv5
Take B7: in experiment [1], the EC50 is below 0.01 µg/mL.

B8: human anti-CD19 ScFv binder M19217-29 (scFv)
scFv: B1 scFv with I50M, V169A, P195S, S229G, Y234F
notes: also called ScFv6
Regarding B8, in experiment [1], the EC50 is below 0.01 µg/mL.

B9: LTG2050 (LP-M19217-CD8 TM-41BB-CD3 zeta) CAR (other)
chain: EVQLVQSGAEVKKPGASVKVSCKASGYTFTSYYMHWVRQAPGQGLEWMGIINPSGGSTSYAQKFQGRVTMTRDTSTSTVYMELSSLRSEDTAVYYCARSDRGITATDAFDIWGQGTMVTVSSGGGGSGGGGSGGGGSQSVLTQPPSVSVAPGQTAKITCGGSDIGNKNVHWYQQKPGQAPVLVVYDDYDRPSGIPERFSGSNSGDAATLTISTVEVGDEADYFCQVWDSSGDPYWVFGGGTQLTVLGAAATTTPAPRPPTPAPTIASQPLSLRPEACRPAAGGAVHTRGLDFACDIYIWAPLAGTCGVLLLSLVITLYCKRGRKKLLYIFKQPFMRPVQTTQEEDGCSCRFPEEEEGGCELRVKFSRSADAPAYQQGQNQLYNELNLGRREEYDVLDKRRGRDPEMGGKPRRKNPQEGLYNELQKDKMAEAYSEIGMKGERRRGKGHDGLYQGLSTATKDTYDALHMQALPPR
notes: Chimeric antigen receptor on the surface of transduced primary human T cells; also called ScFv1-CD8 TM-41BB-CD3 zeta
For B9, in experiment [2], the “CAR expression level (percent of transduced T cells stained by CD19-Fc)” value worked out at 46%.

B10: LTG2068 (LP-M19217-23-CD8 TM-41BB-CD3 zeta) CAR (other)
chain: B9 chain with S31G, M48I, I50L, A61E, T69A, N166D, S229G, S230I
notes: Chimeric antigen receptor on the surface of transduced primary human T cells; also called ScFv5-CD8TM-4-1BB-CD3 zeta
With B10, the “CAR expression level (percent of transduced T cells stained by CD19-Fc)” value in experiment [2] amounted to 54%.

B11: LTG2066 (LP-M19217-2-CD8 TM-41BB-CD3 zeta) CAR (other)
chain: B9 chain with L45F, I50L, G56S, S85N, S148P, T158I, S229G
notes: Chimeric antigen receptor on the surface of transduced primary human T cells; also called ScFv3-CD8TM-4-1BB-CD3 zeta
With B11, the “CAR expression level (percent of transduced T cells stained by CD19-Fc)” value in experiment [2] was found to be 21%.

B12: LTG2071 (LP-M19217-40-CD8 TM-41BB-CD3 zeta) CAR (other)
chain: B9 chain with K13R, E46V, I50L, I157T, F223V, S229G
notes: Chimeric antigen receptor on the surface of transduced primary human T cells; also called ScFv8-CD8TM-4-1BB-CD3 zeta
As for B12, the “CAR expression level (percent of transduced T cells stained by CD19-Fc)” value in experiment [2] was found to be 21%.

B13: LTG2067 (LP-M19217-7-CD8 TM-41BB-CD3 zeta) CAR (other)
chain: B9 chain with K12N, I50M, A105S, V149L, D189N, A206S, S229G
notes: Chimeric antigen receptor on the surface of transduced primary human T cells; also called ScFv4-CD8TM-4-1BB-CD3 zeta
Regarding B13, the “CAR expression level (percent of transduced T cells stained by CD19-Fc)” value in experiment [2] came to 81%.

B14: LTG2070 (LP-M19217-38-CD8 TM-41BB-CD3 zeta) CAR (other)
chain: B9 chain with K13R, Q43R, I50L, K63E, T74M, T104S, T154M, D189N, S229G, V245D
notes: Chimeric antigen receptor on the surface of transduced primary human T cells; also called ScFv7-CD8TM-4-1BB-CD3 zeta
B14: the “CAR expression level (percent of transduced T cells stained by CD19-Fc)” value in experiment [2] came to 47%.

B15: LTG2069 (LP-M19217-29-CD8 TM-41BB-CD3 zeta) CAR (other)
chain: B9 chain with I50M, V169A, P195S, S229G, Y234F
notes: Chimeric antigen receptor on the surface of transduced primary human T cells; also called ScFv6-CD8TM-4-1BB-CD3 zeta
Take B15: the “CAR expression level (percent of transduced T cells stained by CD19-Fc)” value in experiment [2] turned out to be 68%.

B16: LTG2065 (LP-M19217-1-CD8 TM-41BB-CD3 zeta) CAR (other)
chain: B9 chain with I50L, Q153R, T154M, S229G, V236M
notes: Chimeric antigen receptor on the surface of transduced primary human T cells; also called ScFv2-CD8TM-4-1BB-CD3 zeta
For B16, the “CAR expression level (percent of transduced T cells stained by CD19-Fc)” value in experiment [2] stood at 64%.

The values above are taken from patent US20200123254A1 (LENTIGEN TECHNOLOGY, published 2020).
